Test [1] addresses T1, mouse Fc-tagged mouse CD137 (R&D Systems, cat. 937-4B-050) (mouse, UniProt P20334 24-187).
T1 construct: also called mouse CD137-Fc chimeric protein
T1 sequence (looked up): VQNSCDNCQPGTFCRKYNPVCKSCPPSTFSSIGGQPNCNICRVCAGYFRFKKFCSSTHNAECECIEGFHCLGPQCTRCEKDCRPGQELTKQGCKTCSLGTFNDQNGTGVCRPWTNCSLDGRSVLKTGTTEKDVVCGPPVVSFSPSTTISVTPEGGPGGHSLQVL
Kind of test: SPR T200, antigen-Fc captured, molecule as analyte. As to the method: (§1) Affinity to PDL1 of the different species was determined by SPR measurements using a Biacore T200 device (GE Healthcare). An antibody specific for the Fc region of human IgGs was immobilized on a sensor chip (CM5 sensor chip, GE Healthcare) by amine-coupling. For all formats, with the exception of the Fc containing Morrison formats, PDL1-Fc chimeric protein from different species were captured by the immobilized antibody. Three-fold serial dilutions of the molecules specific for PDL1 (0.12-90 nM) were injected into the flow cells for three minutes and dissociation was monitored for 10 minutes. After each injection cycle, surfaces were regenerated with one injection of a 3 M MgCl₂ solution. The apparent dissociation (kd) and association (kₐ) rate constants and the apparent dissociation equilibrium constant (KD) were calculated using one-to-one Langmuir binding model. Affinity to CD137 of the different species was determined using the identical setup as for PDL1 with the exception that CD137-Fc chimeric proteins from different species were captured by the immobilized antibody.

Test [2] has as its target T2, Fc tagged human CD137 (R&D Systems, cat. 838-4B-100) (human, UniProt Q07011 24-186).
T2 construct: also called CD137 Fc chimera; human CD137-Fc chimeric protein
Kind of test: SPR T200, antigen-Fc captured, molecule as analyte. As to the method:
as §1

The target of test [3] is human PDL1-Fc chimeric protein (human, UniProt Q9NZQ7 19-238, limits assumed). Nature of the test: SPR T200, antigen-Fc captured, molecule as analyte. As to the method:
as §1

For test [4], the target named is T3, cynomolgus monkey Fc-tagged CD137 (R&D Systems, cat. 9324-4B-100) (cynomolgus monkey, UniProt A9YYE7 24-186).
T3 construct: also called cynomolgus CD137-Fc chimeric protein
Nature of the test: SPR T200, antigen-Fc captured, molecule as analyte. As to the method: as §1

Test [5] deals with T4, human CD137 expressed on Jurkat cells (human, UniProt Q07011 24-255). Nature of the test: cell-based or functional assay.
In test [6] the target is T4, human CD137 expressed on Jurkat cells. Nature of the test: cell-based or functional assay. This is another data set of the same source.
For test [7] the target is unchanged. Nature of the test: cell-based or functional assay. The source holds these as a separate data set.
Test [8] has the same target. Nature of the test: cell-based or functional assay. The source holds these as a separate data set.
The next test addresses T5, human serum albumin (human, UniProt P02768 25-609).
T5 construct: also called human SA; HSA
Kind of test: SPR T200, SA coupled to chip, pH 5.5. The protocol: (§2) Affinity of molecules to serum albumin (SA) of the different species was determined by SPR measurements using a Biacore T200 device (GE Healthcare). SA was directly coupled to a CM5 sensor chip (GE Healthcare) using amine coupling chemistry. […] The assay was run in a 1×PBS-Tween buffer at pH 5.5.

The next test concerns the target T6, mouse serum albumin (mouse, UniProt P07724 25-608).
T6 construct: also called mouse SA; MSA
Nature of the test: SPR T200, SA coupled to chip, pH 5.5. The protocol: as §2

T3 sequence (A9YYE7 entry or part of it): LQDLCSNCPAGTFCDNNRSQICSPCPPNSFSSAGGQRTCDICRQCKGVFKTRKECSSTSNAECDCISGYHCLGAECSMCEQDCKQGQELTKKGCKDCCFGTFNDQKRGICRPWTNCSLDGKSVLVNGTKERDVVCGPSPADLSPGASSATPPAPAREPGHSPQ

B1: PRO1123 (38-02-A04 sc05 IF scDb-i/33_03_G02 sc01 scDb-o) (bispecific antibody)
chain: DIQMTQSPSSLSASVGDRVTITCQASQSINDYLAWYQQKPGKAPKLLIYKASTLASGVPSRFSGSGSGTDFTLTISSLQPEDFATYYCQQGYIITDIDNVFGTGTKVTVLGGGGGSQVQLQESGPGLVKPSETLSLTCKVSGFSFSNSYWICWVRQPPGKGLEWIGCTFVGSSDSTYYANWAKGRVTISVDSSKNQVSLKLSSVTAADTAVYFCARHPSDAVYGYANNLWGQGTLVTVSSGGGGSGGGGSGGGGSGGGGSIQMTQSPSSLSASVGDRVTITCQASQSINNVLAWYQQKPGKPPKLLIYRASTLASGVPSRFSGSGSGTDFTLTISSLQPEDFATYYCQSSYGNYGDFGTGTKVTVLGGGGGSQVQLQESGPGLVKPSETLSLTCKVSGFSFSSGYDMCWIRQPPGKGLEWIGCVVAGSVDITYYASWAKGRVTISVDSSKNQFSLKLSSVTAADTAVYYCARKDAYSDAFNLWGQGTLVTVSS
notes: scDb; also called PR01123
Consider B1, for which, in [1], the Kd came out at 410 nM, the koff came out at 0.027 s⁻¹ and the kon is 65000 M⁻¹ s⁻¹. In test [2], this molecule registered a Kd of 0.88 nM, an off-rate (koff) of 0.00027 s⁻¹ and a kon of 310000 M⁻¹ s⁻¹. Also, in test [3], the affinity, expressed as Kd, was 0.075 nM; the koff turned out to be 0.00017 s⁻¹; the kon worked out at 2.3e+06 M⁻¹ s⁻¹. In [4], this molecule yielded a Kd of 1.3 nM, a koff of 0.00033 s⁻¹ and a kon of 260000 M⁻¹ s⁻¹. For the same molecule, in test [5], the “max. activation, HCC827 +IFNg” value came out at 154%; the “max. activation, HCC827 -IFNg” value amounted to 123%; the “max. activation, NF-kB reporter gene, CHO-PD-L1” value is 219%; the “rel. IC50 (urelumab/test), HCC827 +IFNg” value worked out at 12.2 ratio. Moreover, in test [5], the “rel. IC50 (urelumab/test), HCC827 -IFNg” value was 6.82 ratio and the “rel. IC50 (urelumab/test), NF-kB reporter gene, CHO-PD-L1” value amounted to 18.1 ratio. Besides, in [6], the “EC50 NFkB-luciferase, HCC827 without IFNy” value was determined as 16.1 ng/mL and the “Top of curve fit, NFkB-luciferase, HCC827 without IFNy” value came out at 123. Further, in test [7], the “EC50 NFkB-luciferase, CHO-PDL1 cells” value came to 5.75 ng/mL and the “Top of curve fit, NFkB-luciferase, CHO-PDL1 cells” value is 219. Besides, in test [8], the “EC50 NFkB-luciferase, HCC827 with IFNy” value was 11.9 ng/mL and the “Top of curve fit, NFkB-luciferase, HCC827 with IFNy” value amounted to 154.

B2: PRO1126 (38-02-A04 sc01 scDb-i/33_03_G02 sc03 Full scDb-o) (bispecific antibody)
chain: DFQLTQSPSSLSASVGDRVTITCQASQSINDYLAWYQQKPGKSPKLLIYKASTLASGVPSRFSGSGSGTDFTLTISSLQPEDFATYYCQQGYIITDIDNVFGTGTKVTVLGGGGGSQVQLQESGPGLVKPSETLSLTCKVSGFSFSNSYWICWIRQPPGKGLEWIGCTFVGSSDSTYYANWAKGRVTISVDSSKNQFSLKLSSVTAADTAVYYCARHPSDAVYGYANNLWGQGTLVTVSSGGGGSGGGGSGGGGSGGGGSIQMTQSPSSLSASVGDRVTITCQASQSINNVLAWYQQKPGKAPKLLIYRASTLASGVPSRFSGSGSGTDFTLTISSLQPEDFATYYCQSSYGNYGDFGTGTKVTVLGGGGGSQSQLQESGPGLVKPSETLSLTCKASGFSFSSGYDMCWVRQPPGKGLEWIACVVAGSVDITYYASWAKGRVTISKDSSKNQVSLKLSSVTAADTAVYFCARKDAYSDAFNLWGQGTLVTVSS
notes: scDb; also called PR01126
Turning to B2, the binding result in test [1] is given as “no binding (tested: 0.12-90 nM)”. In test [2], this molecule displayed a Kd of 3.5 nM, a koff of 0.00075 s⁻¹ and a kon of 210000 M⁻¹ s⁻¹. In [3], this molecule had a Kd of at most 0.0035 nM, a koff below 1e-05 s⁻¹ and a kon of 2.8e+06 M⁻¹ s⁻¹. In test [5], the “max. activation, HCC827 +IFNg” value came out at 208%; the “max. activation, HCC827 -IFNg” value stood at 135%; the “max. activation, NF-kB reporter gene, CHO-PD-L1” value turned out to be 242%; the “rel. IC50 (urelumab/test), HCC827 +IFNg” value worked out at 19.7 ratio. For the same molecule, in test [5], the “rel. IC50 (urelumab/test), HCC827 -IFNg” value came to 16 ratio and the “rel. IC50 (urelumab/test), NF-kB reporter gene, CHO-PD-L1” value came to 14.4 ratio. Besides, in [6], the “EC50 NFkB-luciferase, HCC827 without IFNy” value is 6.97 ng/mL and the “Top of curve fit, NFkB-luciferase, HCC827 without IFNy” value was determined as 135. Moreover, in test [7], the “EC50 NFkB-luciferase, CHO-PDL1 cells” value is 6 ng/mL and the “Top of curve fit, NFkB-luciferase, CHO-PDL1 cells” value was found to be 242. In test [8], the “EC50 NFkB-luciferase, HCC827 with IFNy” value came out at 5.48 ng/mL and the “Top of curve fit, NFkB-luciferase, HCC827 with IFNy” value is 208.

B3: PRO963 (38_02_A04 sc01 scDb-i/33-03-G02 sc01 scDb-o/19-01-H04-sc03 scFv) (other)
chain: DIQMTQSPSSLSASVGDRVTITCQASQSINDYLAWYQQKPGKAPKLLIYKASTLASGVPSRFSGSGSGTDFTLTISSLQPEDFATYYCQQGYIITDIDNVFGTGTKVTVLGGGGGSQVQLQESGPGLVKPSETLSLTCKVSGFSFSNSYWICWIRQPPGKGLEWIGCTFVGSSDSTYYANWAKGRVTISVDSSKNQFSLKLSSVTAADTAVYYCARHPSDAVYGYANNLWGQGTLVTVSSGGGGSGGGGSGGGGSGGGGSIQMTQSPSSLSASVGDRVTITCQASQSINNVLAWYQQKPGKAPKLLIYRASTLASGVPSRFSGSGSGTDFTLTISSLQPEDFATYYCQSSYGNYGDFGTGTKVTVLGGGGGSQVQLQESGPGLVKPSETLSLTCKVSGFSFSSGYDMCWIRQPPGKGLEWIGCVVAGSVDITYYASWAKGRVTISVDSSKNQFSLKLSSVTAADTAVYYCARKDAYSDAFNLWGQGTLVTVSSGGGGSGGGGSIQMTQSPSSLSASVGDRVTITCQSSESVYSNNQLSWYQQKPGQPPKLLIYDASDLASGVPSRFSGSGSGTDFTLTISSLQPEDFATYYCAGGFSSSSDTAFGGGTKLTVLGGGGGSGGGGSGGGGSGGGGSEVQLVESGGGLVQPGGSLRLSCAASGFSLSSNAMGWVRQAPGKGLEYIGIISVGGFTYYASWAKGRFTISRDNSKNTVYLQMNSLRAEDTATYFCARDRHGGDSSGAFYLWGQGTLVTVSS
notes: Trispecific scDb-scFv (PDL1 x CD137 x SA); also called PRO096 (= PRO1051)
Take B3: in [2], binding was put at a Kd of 3 nM, the koff was determined as 0.00062 s⁻¹ and the kon was found to be 200000 M⁻¹ s⁻¹. In [3], the Kd was determined as 0.066 nM, the koff was determined as 0.00013 s⁻¹ and the kon came out at 2e+06 M⁻¹ s⁻¹. In the test with human serum albumin, this molecule gave a Kd of 2.8 nM, a koff of 0.0003 s⁻¹ and a kon of 110000 M⁻¹ s⁻¹. In addition, in the test with mouse serum albumin, the binding result is reported as “no binding”.

B4: PRO1186 (37-20-B03 sc01 / 38-02-A04 sc01 / 23-13-A01 sc03, scDb-scFv) (other)
chain: DIQMTQSPSSLSASVGDRVTITCQASQSIGTYLAWYQQKPGKAPKLLIYRAFILASGVPSRFSGSGSGTDFTLTISSLQPEDFATYYCQSNFYSDSTTIGPNAFGTGTKVTVLGGGGGSQVQLQESGPGLVKPSETLSLTCKVSGFSFSNSYWICWIRQPPGKGLEWIGCTFVGSSDSTYYANWAKGRVTISVDSSKNQFSLKLSSVTAADTAVYYCARHPSDAVYGYANNLWGQGTLVTVSSGGGGSGGGGSGGGGSGGGGSIQMTQSPSSLSASVGDRVTITCQASQSINNVLAWYQQKPGKAPKLLIYRASTLASGVPSRFSGSGSGTDFTLTISSLQPEDFATYYCQSSYGNYGDFGTGTKVTVLGGGGGSQVQLQESGPGLVKPSETLSLTCKVSGFSFNSDYWIYWIRQPPGKGLEWIGSIYGGSSGNTQYASWAQGRVTISVDSSKNQFSLKLSSVTAADTAVYYCARGYVDYGGATDLWGQGTLVTVSSGGGGSGGGGSVVMTQSPSSLSASVGDRVTITCQASQIISSRSAWYQQKPGQPPKLLIYQASKLASGVPSRFSGSGSGTDFTLTISSLQPEDFATYYCQCTYIDSNFGAFGGGTKLTVLGGGGGSGGGGSGGGGSGGGGSEVQLVESGGGLVQPGGSLRLSCAASGFSFSSSYWICWVRQAPGKGLEWVGCVFTGDGTTYYASWAKGRFTISRDNSKNTVYLQMNSLRAEDTATYFCARPVSVYYYGMDLWGQGTLVTVSS
notes: Trispecific scDb-scFv
On to B4, for which, in test [2], binding was put at a Kd of 2.6 nM, the koff was 0.0005 s⁻¹ and the kon stood at 190000 M⁻¹ s⁻¹. In [3], this molecule gave a Kd of 0.0037 nM, a koff of 2.3e-05 s⁻¹ and a kon of 6.2e+06 M⁻¹ s⁻¹. In addition, in test [5], the “max. activation, HCC827 +IFNg, 24h” value is 129%; the “max. activation, NF-kB reporter gene, CHO-PD-L1, 24h” value is 152%; the “rel. IC50 (urelumab/test), HCC827 +IFNg, 24h” value is 1.88 ratio; the “rel. IC50 (urelumab/test), NF-kB reporter gene, CHO-PD-L1, 24h” value was found to be 0.97 ratio. Also, in the test with human serum albumin, the Kd is 2.9 nM, the koff was 0.00072 s⁻¹ and the kon is 250000 M⁻¹ s⁻¹. In the test with mouse serum albumin, this molecule gave a Kd of 43 nM, a koff of 0.0095 s⁻¹ and a kon of 220000 M⁻¹ s⁻¹.

The values are drawn from patent US20200332015A1 (NAMAB THERAPEUTICS, published 2020).
